# From patent US20160291016A1 (CHU SAINTE JUSTINE, published 2016)
# B1: osteopontin (OPN), endogenous, in lysates of mouse osteoblasts (ligand)
# chain: not shown
# notes: Endogenous protein detected by Western blot with an anti-OPN antibody after immunoprecipitation of its receptors
# Assays:
# [1] = target: T1, integrin β1 (OPN receptor subunit) of mouse osteoblasts (mouse, UniProt P09055 21-798); assay: co-immunoprecipitation from mouse osteoblast lysates, Western blot
# T1 construct: Only the subunit is named; also called β1 integrin
# Description: (§1) Then, was examined whether the interaction of OPN with the receptor is influenced by PTPμ deficiency. […] In contrast, levels of CD44 in OPN immunoprecipitates were similar in WT and PTPμ^{-/-} osteoblasts.
# [2] = target: T2, integrin α5 (OPN receptor subunit) of mouse osteoblasts (mouse, UniProt P11688 45-1053); assay: as above
# T2 construct: Only the subunit is named; also called α5 integrin
# Description: as §1
# T2 sequence (P11688 45-1053 limits assumed, chain 1 of 2): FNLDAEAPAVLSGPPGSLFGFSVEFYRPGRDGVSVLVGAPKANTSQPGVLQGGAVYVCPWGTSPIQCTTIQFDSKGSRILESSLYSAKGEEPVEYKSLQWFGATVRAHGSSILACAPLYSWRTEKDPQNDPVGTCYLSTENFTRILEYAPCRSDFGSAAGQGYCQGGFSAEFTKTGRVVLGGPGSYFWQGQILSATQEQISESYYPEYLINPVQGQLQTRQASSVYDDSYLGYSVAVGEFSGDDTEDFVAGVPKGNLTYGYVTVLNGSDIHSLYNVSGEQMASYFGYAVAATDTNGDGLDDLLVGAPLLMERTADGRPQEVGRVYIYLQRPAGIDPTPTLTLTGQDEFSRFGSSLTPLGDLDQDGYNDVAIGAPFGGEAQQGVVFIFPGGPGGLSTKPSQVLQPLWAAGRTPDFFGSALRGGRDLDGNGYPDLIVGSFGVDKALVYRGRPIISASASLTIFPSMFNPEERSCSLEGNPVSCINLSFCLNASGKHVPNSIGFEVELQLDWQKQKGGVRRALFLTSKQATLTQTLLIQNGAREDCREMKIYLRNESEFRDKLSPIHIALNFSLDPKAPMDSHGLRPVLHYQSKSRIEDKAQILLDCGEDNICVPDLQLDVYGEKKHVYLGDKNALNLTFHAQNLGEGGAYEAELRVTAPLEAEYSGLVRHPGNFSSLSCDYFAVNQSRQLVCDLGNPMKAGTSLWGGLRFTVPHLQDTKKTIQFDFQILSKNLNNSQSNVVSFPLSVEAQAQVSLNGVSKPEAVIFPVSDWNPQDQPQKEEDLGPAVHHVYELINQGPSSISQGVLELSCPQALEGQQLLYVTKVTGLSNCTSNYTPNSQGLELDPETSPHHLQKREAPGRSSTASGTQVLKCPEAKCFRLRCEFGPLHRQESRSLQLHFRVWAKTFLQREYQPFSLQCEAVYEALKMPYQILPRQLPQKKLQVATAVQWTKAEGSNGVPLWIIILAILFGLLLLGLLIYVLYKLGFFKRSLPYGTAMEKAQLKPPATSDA
# T2 sequence (chain, as listed by the source limits assumed, chain 2 of 2): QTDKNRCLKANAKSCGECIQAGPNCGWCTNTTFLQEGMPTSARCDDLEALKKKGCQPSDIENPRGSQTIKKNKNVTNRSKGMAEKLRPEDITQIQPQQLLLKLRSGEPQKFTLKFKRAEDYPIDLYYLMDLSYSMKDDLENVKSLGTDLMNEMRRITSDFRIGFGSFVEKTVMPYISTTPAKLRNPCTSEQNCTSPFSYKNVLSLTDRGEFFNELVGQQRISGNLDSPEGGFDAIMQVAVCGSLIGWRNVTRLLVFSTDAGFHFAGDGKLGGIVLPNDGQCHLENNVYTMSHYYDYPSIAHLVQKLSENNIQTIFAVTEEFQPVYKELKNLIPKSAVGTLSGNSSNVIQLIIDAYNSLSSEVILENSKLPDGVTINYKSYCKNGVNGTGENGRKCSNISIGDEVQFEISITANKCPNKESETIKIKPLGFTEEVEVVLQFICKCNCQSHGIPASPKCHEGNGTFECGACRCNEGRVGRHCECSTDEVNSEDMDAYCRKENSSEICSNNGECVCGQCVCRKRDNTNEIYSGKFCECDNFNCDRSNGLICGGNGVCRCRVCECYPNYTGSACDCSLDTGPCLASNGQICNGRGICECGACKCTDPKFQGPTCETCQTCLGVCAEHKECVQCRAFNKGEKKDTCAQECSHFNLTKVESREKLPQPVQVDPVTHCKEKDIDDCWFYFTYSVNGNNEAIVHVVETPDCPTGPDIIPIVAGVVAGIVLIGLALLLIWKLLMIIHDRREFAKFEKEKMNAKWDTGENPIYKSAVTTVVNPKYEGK
# T1 sequence (chain, as listed by the source limits assumed, chain 1 of 2): as the sequence (P11688 45-1053 limits assumed, chain 1 of 2) above
# T1 sequence (P09055 21-798 limits assumed, chain 2 of 2): as the sequence (chain, as listed by the source limits assumed, chain 2 of 2) above
binder,measurement,setting,value
B1,"fold change of the level in the immunoprecipitates, PTPµ-/- osteoblasts against WT osteoblasts",[1],> 30 fold
same,"fold change of the level in the immunoprecipitates, PTPµ-/- osteoblasts against WT osteoblasts",[2],> 30 fold
